{"source": "paper PMC10241002", "about": "(Autophagy, 2022)", "proteins": {"B1": {"name": "Atg9-GFP (purified, GFP-3xFLAG fusion) (natural protein, S. cerevisiae, UniProt Q12142 1-997, looked up)", "chain": "MERDEYQLPNSHGKNTFLSRIFGLQSDEVNPSLNSQEMSNFPLPDIERGSSLLHSTNDSREDVDENDLRVPESDQGTSTEEEDEVDEEQVQAYAPQISDGLDGDHQLNSVTSKENVLETEKSNLERLVEGSTDDSVPKVGQLSSEEEEDNEFINNDGFDDDTPLFQKSKIHEFSSKKSNTIEDGKRPLFFRHILQNNRPQRDTQKLFTSSNAIHHDKDKSANNGPRNINGNQKHGTKYFGSATQPRFTGSPLNNTNRFTKLFPLRKPNLLSNISVLNNTPEDRINTLSVKERALWKWANVENLDIFLQDVYNYYLGNGFYCIILEKILNICTLLFVVFVSTYMGHCVDYSKLPTSHRVSDIIIDKCYSNSITGFTKFFLWMFYFFVILKIVQLYFDVQKLSELQNFYKYLLNISDDELQTLPWQNVIQQLMYLKDQNAMTANVVEVKAKNRIDAHDVANRIMRRENYLIALYNSDILNLSLPIPLFRTNVLTKTLEWNINLCVMGFVFNESGFIKQSILKPSQREFTREELQKRFMLAGFLNIILAPFLVTYFVLLYFFRYFNEYKTSPGSIGARQYTPIAEWKFREYNELYHIFKKRISLSTTLANKYVDQFPKEKTNLFLKFVSFICGSFVAILAFLTVFDPENFLNFEITSDRSVIFYITILGAIWSVSRNTITQEYHVFDPEETLKELYEYTHYLPKEWEGRYHKEEIKLEFCKLYNLRIVILLRELTSLMITPFVLWFSLPSSAGRIVDFFRENSEYVDGLGYVCKYAMFNMKNIDGEDTHSMDEDSLTKKIAVNGSHTLNSKRRSKFTAEDHSDKDLANNKMLQSYVYFMDDYSNSENLTGKYQLPAKKGYPNNEGDSFLNNKYSWRKQFQPGQKPELFRIGKHALGPGHNISPAIYSTRNPGKNWDNNNNGDDIKNGTNNATAKNDDNNGNNDHEYVLTESFLDSGAFPNHDVIDHNKMLNSNYNGNGILNKGGVLGLVKEYYKKSDVGR"}, "B2": {"name": "Atg9^F627A-GFP (purified, GFP-3xFLAG fusion) (natural protein, S. cerevisiae, UniProt Q12142 1-997, looked up)", "chain": "B1 chain with F627A"}}, "biological_target": "the molecule itself", "assay": "single-molecule fluorescence stoichiometry analysis", "note": "Numbering of substitutions follows the chain as printed. Names may count otherwise.", "data": [{"protein": "B1", "values": [{"measurement": "binding result", "result": "binds"}]}, {"protein": "B2", "values": [{"measurement": "stoichiometry N", "result": 3}]}]}
